Source: patent US9518103B2, “Optogenetic probes for measuring membrane potential” (President and Fellows of Harvard College, priority 2014, dated 2016)
Where a chain is given by its changes, count along the chain named. Names may count otherwise.

Key:
[1] = Quantum yield of solubilized protein (Cy5 reference); format: physicochemical; conditions: for Quantum yield / Quantum yield relative to Arch D95N: excitation at 600 nm
Description: Solubilization and spectroscopic characterization of QuasAr1 and QuasAr: E. coli expressing QuasAr1 and QuasAr2 were grown in 12 mL LB medium with 200 μg/ml ampicillin overnight. The next day, 12 mL of liquid LB medium containing 50 μM retinal, 200 μg/ml ampicillin and 0.1% arabinose was added into the overnight culture, followed by additional incubation at 37° C. for 4 hours. The cell pellets were collected by centrifugation and lysed by suspension in B-PER solution (Pierce). The cytoplasmic fraction was discarded after centrifugation and the colored insoluble fraction was resuspended in phosphate buffered saline (PBS) containing 1.5% n-dodecyl-β-D-maltopyranoside (Affymetrix, Inc.). The suspension was homogenized by an ultrasonic homogenizer and centrifuged (17,000 g for 15 mins, 4° C.). The solubilized protein in the supernatant was used for in vitro spectroscopic characterization.
Absorption spectra were recorded on a DU-800 UV-visible spectrophotometer (Beckman) and fluorescence spectra were recorded on a Safire2 plate reader (Tecan). Cy5 carboxylic acid (Cyandye) was used as the reference for quantum yield measurement. Quantum yield measurements were performed on a series of dilutions of each protein solution and standard, with absorbance values ranging from 0.01 to 0.05 at 600 nm. The fluorescence emission spectra of each dilution were recorded with excitation at 600 nm and the total fluorescence intensities obtained by integration. Integrated fluorescence intensity vs. absorbance was plotted for each protein and each standard. Quantum yields, Φ, were determined from the slopes (S) of each line using the equation: Φprotein=Φstandard×(Sprotein/Sstandard).

HEK293 cells = assay: Optical crosstalk of blue illumination into QuasAr fluorescence; format: cell-based; conditions: continuous 640 nm 300 W/cm^2
From the text: FIGS. 5A-5B show the quantification of optical crosstalk of blue illumination into QuasAr fluorescence. Illumination sufficient to induce high-frequency trains of action potentials (488 nm, 140 mW/cm2) perturbed fluorescence of QuasArs by <1%. […] HEK293 cells expressing QuasAr1 or QuasAr2 were exposed to continuous excitation at 640 nm (300 W/cm^2) and pulses of illumination at 488 nm (50 ms, 5 Hz). The intensity of the blue pulses increased from 0.06 to 1.8 W/cm^2. […] Illumination with blue light at typical intensity used to excite a blue-light activator (CheRiff) (0.2 W/cm^2) increased QuasAr1 fluorescence by 1.1% and QuasAr2 fluorescence by 0.6%. Illumination at with blue light at 1 W/cm^2 increased QuasAr1 fluorescence by 3.4% and QuasAr2 fluorescence by 2.4%. Error bars represent s.e.m. for n=5 cells for each QuasAr.

[2] = system: cultured rat hippocampal neurons; assay: Single-trial detection of neuronal action potentials with eFRET GEVIs; format: cell-based; conditions: 3 W/cm^2 illumination, exposure times compatible with single action potentials
From the text: We further characterized the most sensitive eFRET voltage sensors via transient transfection in cultured rat hippocampal neurons. […] Injection of current pulses via a patch pipette (500-600 pA, 5-10 ms, 5 Hz) induced trains of action potentials, which induced downward fluorescence transients of 12% (YFP), 12% (mOrange2), 7% (mRuby2).
The signal-to-noise ratio (SNR) of fluorescence detection, defined as the ratio of the peak amplitude to standard deviation of fluorescence at the baseline, was 6.6 (YFP), 11.6 (mOrange2), and 10.5 (mRuby2). In all cases images were acquired at 1 kHz with 3 W/cm^2 illumination intensity. Previous measurements with QuasAr2 reported an SNR of 30-70 at the same bandwidth but with 800 W/cm^2 illumination.

B1: QuasAr1: Archaerhodopsin 3 variant with mutations P60S, T80S, D95H, D106H, F161V; genetically encoded voltage indicator (protein)
chain: MDPIALQAGYDLLGDGRPETLWLGIGTLLMLIGTFYFLVRGWGVTDKDAREYYAVTILVSGIASAAYLSMFFGIGLTEVSVGGEMLDIYYARYAHWLFTTPLLLLHLALLAKVDRVTIGTLVGVDALMIVTGLIGALSHTAIARYSWWLFSTICMIVVLYVLATSLRSAAKERGPEVASTFNTLTALVLVLWTAYPILWIIGTEGAGVVGLGIETLLFMVLDVTAKVGFGFILLRSRAILGDTEAPEPSAGADVSAAD
fluorescence quantum yield enhanced relative to Arch(D95N) [1]: 19 fold
Quantum yield [1]: 8 × 10^−3
Quantum yield relative to Arch D95N [1]: 19
increase of fluorescence by blue light (HEK293 cells; 488 nm 0.2 W/cm^2): 1.1%
increase of fluorescence by blue light (HEK293 cells; 488 nm 1 W/cm^2): 3.4%

B2: QuasAr2: Archaerhodopsin 3 variant with mutations P60S, T80S, D95Q, D106H, F161V; genetically encoded voltage indicator (protein)
chain: B1 chain with H95Q
fluorescence quantum yield enhanced relative to Arch(D95N) [1]: 10 fold
Quantum yield [1]: 4 × 10^−3
Quantum yield relative to Arch D95N [1]: 10
increase of fluorescence by blue light (HEK293 cells; 488 nm 0.2 W/cm^2): 0.6%
increase of fluorescence by blue light (HEK293 cells; 488 nm 1 W/cm^2): 2.4%
direct fluorescence [2]: not detectable
